Data: the nanobody polyreactivity screen of Harvey et al. (2022)

Test: yeast display, Sf9 membrane polyspecificity reagent, FACS + sequencing; frameworks hold sequencing errors
Outline: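 Nanobodies from a synthetic yeast display library (Saccharomyces cerevisiae BJ5465), induced 36–48 hours with galactose, were stained 1 hour at 4 °C with 10% biotinylated, detergent-solubilized Sf9 membrane reagent, enriched on streptavidin microbeads, then FACS-sorted. Anti-HA (expression) and streptavidin (reagent binding) fluorescence set low and high (top ~1%) gates. Polyreactivity labels come from the gate of origin. Genes were colony-PCR amplified, MiSeq 2 × 250 sequenced and filtered by CDR length.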

| Sequence | polyreactivity (PSR sort gate) |
| --- | --- |
| QVQLVESVGGLVQAGGSLRLSCAASGSIIYHYPMGWYRHAPGKEAELVAAIYTTAGDTYYADSVKGRFTISRDNAKNTVYLQMNCLKPEDTAVYYCNASSSYFYYVRYDHWGQGTQVTVSS | low polyreactivity |
| QVQLQERGGGLVQARGSLRLSCAASGNISYRTNMGWYRPAPGKERELVASIGGGTTNYADSVKGRFTISRDNAKKTVYLQMNSLKPVDTAVYYCAVVGTTQFRHRYWGQGTQVTASS | high polyreactivity |
| QVQLVESGGGLVQAGGSLRLSCAASGFIFNKNAMGWYRQAPGKERELVAAITFGGGTTYYADSVKGRFTISRDNAKNTVYLQMNSLKPEDTAVYYCNAVYYWYKGDYWGQGTQVTVSS | high polyreactivity |
| QVQLVESGGGLVQAGGSLRLSCAASGFTFYQYAMGSYRQAPGKESEFVATISSGGSTYYADSVKGRFTISRDNAKNTFYLQMNSLIPEDTAVYYCAKVDFIVGYYYWGQGTQVTVSS | low polyreactivity |
| QVQLVESGGGLVQAGGSLRLSCAASGSLFGRYTMGWYRQATGKDREFVAAIDRVGITNYADSVKGRFTISRDNAKNTVYLQMNSLKPEDTAVYYCAADYGAIRPRDFIEVPGHYDYWGQGTQVTVSS | low polyreactivity |
| QVQLVESGGGLVQAGGSLRLSCAASGYSFSPNAMGWYRQEPGKDRELVAAISSGVSTDYADSVKGRFSISRDNAKNTVYLQMNSLKPEDTAVYYCAADDQYRVTLGYVYWGQGTQVTVSS | low polyreactivity |
| QVQLVESGGGLVQAGGSLRLSCAASGLIFSYNAMGWYRQAPGTEMELVASITGGGSTYYADSVKGRFTISRDNAKNTVYFQIKSQKPEDTAVYYCAVVRLWYAQPAAGFRAGGGYWGQGTQVTLSS | low polyreactivity |
| QVQLVESGVGLVQSGGSLRLRCAASGFTFVSYALGWYRQAPGKERELVASISKRGGTTYYADSVKGRFTISRENAKNTVYLQMNSLKPEDTAVYYCNARDTRRYVTYDSGYDYWGQGTQVTVSS | high polyreactivity |
| QVQLVESGGGLVQAGGSLRLSCAASGSNFGYNALGWYRQAPGKDRELVAAITGSGGSTYYADSVKGRFTISRDNAKNTVYLQMNSLKPEDTAVYYCAHDLFGGPLGYWDYDYWGQGTQVTVSS | low polyreactivity |
| QVQLVESGGGLVQAGGSLRLSCAASGRIFERNAKGWYRQAPGKERELVAALTYNGGRTYYADSVKGRFTITRDNAKNTVYLQLNSLKPEDTAVYNCNAQSRVTRSSYRGSPRYDYWGQGTQVTVSS | high polyreactivity |
| QVQLVESAGGLVQAGGSLRLSCAASGRTITFNTMGLYRQAPGKERELVAGIDRGGSTNYADSVKGRFTISRDNAKNTVYLQMNSLKPEDTAVYYCAADPPGYVYGKRYYWGQGTQVTVSS | high polyreactivity |
| QVQLVESGGGLVQAGGSLRLSCAASGRTFYFYTLGWYRPAPGKERELVAAITSGGSTNYADSVKGRFTISRDNAKNTVYLQMNSLIPEDTAVYYCAAKYYRVYGYGLRMYYWGQGTQVTVSS | high polyreactivity |
| QVQLVESGGGLVQAGGSLRLSCAASGSIFRRNAMGWYRQAPGKERELVAAISSIGSSTYYADSVKGRFTISRDNAKNTVYLQMNSLKPEDTAVYYCAALYVQGTHTYGYWGQGTQVTVSS | high polyreactivity |
| QVHLVESGGGLVQAGGSLRLSCAASGGIFYINSMGWYRQAPGKERELVAAITGGASTYYADSVKGRFTISRDNAKNTVYLQMNSLNPEDTAVYYCAARPSSRRVYPAYLYGYWGQGTQVSVSS | high polyreactivity |
| QVQLVESGGGLVQAGGSLRLSCAASGRTFYWNAMGWYRQAPGKEREFVAAITNTAGYTYYADSVKGRFTISRDNAKNTVYLQMNSLKPEDTAVYYCAKSGNAGYRTYLRDYWGQGTQVTVSS | low polyreactivity |
| QVQLEESGGGLVQAGGSLRLSCAASGRIFRPNAMGWYRQAPGKERELVAAISSGGSTYYADSVKGRFTISRDNAKNTVYLQMNSLKPEDTAVYYCAARSRGYDIRYGYWGQGTQVTVSS | high polyreactivity |
| QVQLVESGGGLVQAGGSLRLSCAASGFTYFYAMGWYRQAPGKERELVATITINGGRTYYADSVKGRFTISRDNAKNTVYLQMNSLKPEDTAVYYCAAKSWYSYGDWGYYSWGQGTQVTVSS | high polyreactivity |
